In patent US20220411483A1 (Chugai, published 2022):
Numbering of substitutions follows the chain as printed.

B1: IL6R-P771/IL6R-L (antibody, human IgG1, kappa)
heavy: QVQLQESGPGLVKPSETLSLTCAVSGHSISHDHAWSWVRQPPGEGLEWIGFISYSGITNYNPSLQGRVTISRDNSKNTLYLQMNSLRAEDTAVYYCARSLARTTAMDYWGEGTLVTVSSASTKGPSVFPLAPSSKSTSGGTAALGCLVKDYFPEPVTVSWNSGALTSGVHTFPAVLQSSGLYSLSSVVTVPSSSLGTQTYICNVNHKPSNTKVDKKVEPKSCDKTHTCPPCPAPELLGGDSVFLFPPKPKDTLMISRTPEVTCVVIDVSHEDGEVKFNWYVDGVEVHNAKTKPREEQYNSTYRVVSVLTVLHQDWLNGKEYKCAVSNKALPAPIEKTISKAKGQPREPQVYTLPPSRDELTKNQVSLTCLVKGFYPSDIAVEWESNGQPENNYKTTPPVLDSDGSFFLYSKLTVDKSRWQQGNVFSCSVMHEALHNHYTQKSLSLSP
light: not shown
B2: IL6R-P772/IL6R-L (antibody, human IgG1, kappa)
heavy: B1 heavy with A324E
light: not shown
B3: IL6R-P779/IL6R-L (antibody, human IgG1, kappa)
heavy: B1 heavy with S269A, H270E
light: not shown
B4: IL6R-P783/IL6R-L (antibody, human IgG1, kappa)
heavy: B1 heavy with G239D, I266V, G273P, A324K, A329G, A332S, P333S
light: not shown
B5: IL6R-P776/IL6R-L (antibody, human IgG1, kappa)
heavy: B1 heavy with I266V, A324E
light: not shown
B6: IL6R-P781/IL6R-L (antibody, human IgG1, kappa)
heavy: B1 heavy with I266V, G273P, S300A, A324K, A329G, A332S, P333S
light: not shown
B7: IL6R-P773/IL6R-L (antibody, human IgG1, kappa)
heavy: B1 heavy with I266V, S269A, H270E
light: not shown
B8: IL6R-P777/IL6R-L (antibody, human IgG1, kappa)
heavy: B1 heavy with E235D, S269A, H270E
light: not shown
B9: IL6R-P782/IL6R-L (antibody, human IgG1, kappa)
heavy: B1 heavy with E235D, I266V, G273P, A324K, A329G, A332S, P333S
light: not shown
B10: IL6R-P778/IL6R-L (antibody, human IgG1, kappa)
heavy: B1 heavy with E235D, S269A, H270E, A324E
light: not shown
B11: IL6R-P775/IL6R-L (antibody, human IgG1, kappa)
heavy: B1 heavy with I266V
light: not shown
B12: IL6R-P774/IL6R-L (antibody, human IgG1, kappa)
heavy: B1 heavy with I266V, S269A, H270E, A324E
light: not shown
B13: IL6R-P780/IL6R-L (antibody, human IgG1, kappa)
heavy: B1 heavy with S269A, H270E, A324E
light: not shown

target: T1, human FcγRIa extracellular domain with C-terminal His tag (human, UniProt P12314 16-292); test: SPR, antibody captured, FcgR analyte
T1 construct: Whole entry named; also called FcgRIa
T1 sequence (P12314 16-292): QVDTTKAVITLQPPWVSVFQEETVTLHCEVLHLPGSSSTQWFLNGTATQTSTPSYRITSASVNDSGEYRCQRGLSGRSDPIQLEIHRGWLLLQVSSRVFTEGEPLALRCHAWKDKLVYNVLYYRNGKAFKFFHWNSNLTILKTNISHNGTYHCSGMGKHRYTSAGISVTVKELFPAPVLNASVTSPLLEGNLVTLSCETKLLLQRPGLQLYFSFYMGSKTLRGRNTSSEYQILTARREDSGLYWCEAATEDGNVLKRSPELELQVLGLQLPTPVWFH

| Binder | Kd [nM] |
| --- | --- |
| B1 | 14 |
| B2 | 9.1 |
| B3 | 3.4 |
| B4 | 160 |
| B5 | 5.2 |
| B6 | 17 |
| B7 | 2.1 |
| B8 | 1.6 |
| B9 | 30 |
| B10 | 0.96 |
| B11 | 8.6 |
| B12 | 1.1 |
| B13 | 2.1 |

target: T2, human FcγRIIa R type extracellular domain with C-terminal His tag (human, UniProt P12318 34-217); test: SPR, antibody captured, FcgR analyte
T2 construct: extracellular domain; also called FcgRIIaR
T2 sequence (looked up): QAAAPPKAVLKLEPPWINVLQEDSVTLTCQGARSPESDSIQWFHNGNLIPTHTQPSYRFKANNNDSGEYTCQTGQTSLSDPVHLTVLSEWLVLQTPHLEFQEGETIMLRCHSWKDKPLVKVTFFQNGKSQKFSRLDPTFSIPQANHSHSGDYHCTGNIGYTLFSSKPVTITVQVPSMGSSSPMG

| Binder | Kd [nM] |
| --- | --- |
| B1 | 4300 |
| B2 | 3100 |
| B3 | 2200 |
| B4 | 39000 |
| B5 | 4000 |
| B6 | 11000 |
| B7 | 2700 |
| B8 | 1900 |
| B9 | 37000 |
| B10 | 1300 |
| B11 | 5400 |
| B12 | 2000 |
| B13 | 1700 |

target: T3, human FcγRIIb extracellular domain with C-terminal His tag (human, UniProt P31994 43-217); test: SPR, antibody captured, FcgR analyte
T3 construct: extracellular domain; also called FcgRIIb
T3 sequence (looked up): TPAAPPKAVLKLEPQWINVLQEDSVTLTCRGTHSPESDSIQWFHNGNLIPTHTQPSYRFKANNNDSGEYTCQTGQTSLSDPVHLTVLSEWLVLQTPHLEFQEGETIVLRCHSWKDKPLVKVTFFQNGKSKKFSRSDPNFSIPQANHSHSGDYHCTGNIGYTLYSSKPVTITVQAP

| Binder | Kd [nM] |
| --- | --- |
| B1 | 140 |
| B2 | 97 |
| B3 | 50 |
| B4 | 3800 |
| B5 | 280 |
| B6 | 9000 |
| B7 | 140 |
| B8 | 52 |
| B9 | 3600 |
| B10 | 25 |
| B11 | 400 |
| B12 | 88 |
| B13 | 34 |

target: T1, human FcγRIa extracellular domain with …; test: SPR, KD of IL6R-G1d/IL6R-L divided by KD of variant

| Binder | Relative FcgRIa-binding Activity |
| --- | --- |
| B1 | 0.023 |
| B2 | 0.035 |
| B3 | 0.094 |
| B4 | 0.002 |
| B5 | 0.062 |
| B6 | 0.019 |
| B7 | 0.152 |
| B8 | 0.2 |
| B9 | 0.011 |
| B10 | 0.333 |
| B11 | 0.037 |
| B12 | 0.291 |
| B13 | 0.152 |

target: T2, human FcγRIIa R type extracellular …; test: as above

| Binder | Relative FcgRIIaR-binding Activity |
| --- | --- |
| B1 | 0.26 |
| B2 | 0.35 |
| B3 | 0.5 |
| B4 | 0.03 |
| B5 | 0.28 |
| B6 | 0.1 |
| B7 | 0.41 |
| B8 | 0.58 |
| B9 | 0.03 |
| B10 | 0.85 |
| B11 | 0.2 |
| B12 | 0.55 |
| B13 | 0.65 |

target: T4, human FcγRIIa H type extracellular domain with C-terminal His tag (human, UniProt P12318 34-217); test: as above
T4 construct: extracellular domain; also called FcgRIIaH
T4 sequence (looked up): T2 sequence (looked up) with R134H

| Binder | Relative FcgRIIaH-binding Activity |
| --- | --- |
| B1 | 0.007 |
| B2 | 0.006 |
| B3 | 0.009 |
| B4 | 0.006 |
| B5 | 0.006 |
| B6 | 0.003 |
| B7 | 0.006 |
| B8 | 0.008 |
| B9 | 0.005 |
| B10 | 0.01 |
| B11 | 0.005 |
| B12 | 0.008 |
| B13 | 0.008 |

target: T3, human FcγRIIb extracellular domain with …; test: as above

| Binder | Relative FcgRIIb-binding Activity |
| --- | --- |
| B1 | 15 |
| B2 | 21.6 |
| B3 | 42 |
| B4 | 0.6 |
| B5 | 7.5 |
| B6 | 0.2 |
| B7 | 15 |
| B8 | 40.4 |
| B9 | 0.6 |
| B10 | 84 |
| B11 | 5.3 |
| B12 | 23.9 |
| B13 | 61.8 |

target: T5, human FcγRIIIa V type extracellular domain with C-terminal His tag (human, UniProt P08637 17-208); test: as above
T5 construct: extracellular domain; also called FcgRIIIaV
T5 sequence (P08637 17-208 F176V): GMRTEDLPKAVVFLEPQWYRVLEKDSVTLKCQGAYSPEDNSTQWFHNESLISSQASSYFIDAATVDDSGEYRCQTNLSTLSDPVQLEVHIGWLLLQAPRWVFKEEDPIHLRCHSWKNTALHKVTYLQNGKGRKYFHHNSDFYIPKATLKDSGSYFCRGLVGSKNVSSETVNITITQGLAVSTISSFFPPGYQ

| Binder | Relative FcgRIIIaV-binding Activity |
| --- | --- |
| B1 | 0.01 |
| B2 | 0.006 |
| B3 | 0.011 |
| B4 | 0.006 |
| B5 | 0.01 |
| B6 | 0.007 |
| B7 | 0.009 |
| B8 | 0.007 |
| B9 | 0.006 |
| B10 | 0.009 |
| B11 | 0.007 |
| B12 | 0.012 |
| B13 | 0.008 |
